Laboratory results as given in article PMC6212786 (Nucleic Acids Research, 2018).

T1: Full-length wild-type T4 DNA ligase (gp30) (bacteriophage T4, UniProt P00970 1-487)
T1 sequence (looked up): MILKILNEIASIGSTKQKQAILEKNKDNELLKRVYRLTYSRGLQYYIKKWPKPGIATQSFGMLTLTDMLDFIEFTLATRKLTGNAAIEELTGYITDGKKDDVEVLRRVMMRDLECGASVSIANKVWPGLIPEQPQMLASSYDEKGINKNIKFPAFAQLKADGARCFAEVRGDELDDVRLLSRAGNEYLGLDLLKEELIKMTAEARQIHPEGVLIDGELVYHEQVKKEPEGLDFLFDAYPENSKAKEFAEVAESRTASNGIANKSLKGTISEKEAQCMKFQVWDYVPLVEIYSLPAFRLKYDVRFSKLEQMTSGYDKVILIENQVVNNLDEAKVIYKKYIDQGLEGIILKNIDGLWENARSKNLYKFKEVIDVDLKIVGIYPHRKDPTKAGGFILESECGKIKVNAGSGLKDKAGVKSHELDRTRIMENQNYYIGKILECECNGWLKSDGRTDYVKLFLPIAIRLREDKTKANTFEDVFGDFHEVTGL

B1: T4 sliding clamp gp45, full length (trimer) (natural protein, bacteriophage T4, UniProt P04525 1-228, looked up)
chain: MKLSKDTTALLKNFATINSGIMLKSGQFIMTRAVNGTTYAEANISDVIDFDVAIYDLNGFLGILSLVNDDAEISQSEDGNIKIADARSTIFWPAADPSTVVAPNKPIPFPVASAVTEIKAEDLQQLLRVSRGLQIDTIAITVKEGKIVINGFNKVEDSALTRVKYSLTLGDYDGENTFNFIINMANMKMQPGNYKLLLWAKGKQGAAKFEGEHANYVVALEADSTHDF

Key:
[1] = target: T1, Full-length wild-type T4 DNA ligase …; experiment: SEC
[2] = target: B1; experiment: ITC

Binder | binding result [1] | Kd [2] | stoichiometry N [2]
B1 | binds |  | 
KKEPEGLDFLFDA [T4 ligase loop peptide KKEPEGLDFLFDA] |  | 10.7 µM | 3 peptides per gp45 trimer
